Data: the supplement of paper PMC10065799, “High-throughput profiling of sequence recognition by tyrosine kinases and SH2 domains using bacterial peptide display” (eLife, 2023)

Legend:
SHP2-C SH2 = test: SH2 binding enrichment of the phosphorylated peptide, bacterial display (enrichment ratio); higher = better substrate or ligand; peptides without Tyr show the background
c-Src SH2 = test: as above
Grb2 SH2 = Grb2 SH2 (UniProt P62993); test: as above
FGFR1 = FGFR1 (UniProt P11362); test: phosphorylation enrichment, bacterial display (enrichment ratio); higher = better substrate or ligand; peptides without Tyr show the background
EPHB1 = EPHB1 (UniProt P54762); test: as above
Fes = Fes (UniProt P07332); test: as above
Fer (mouse) = test: as above
Fyn = Fyn (UniProt P06241); test: as above
Jak2 = Jak2 (UniProt O60674); test: as above
Hck = Hck (UniProt P08631); test: as above
AncSZ = test: as above
c-Abl (mouse) = test: as above
FGFR3 = FGFR3 (UniProt P22607); test: as above
MERTK = MERTK (UniProt Q12866); test: as above
c-Src = test: as above
EPHB2 = EPHB2 (UniProt P29323); test: as above
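Wherever SH2 binding enrichment of the phosphorylated peptide, bacterial display is given: peptide library displayed on the E. coli surface as eCPX fusions, selected cells deep-sequenced, score is each peptide's frequency after selection divided by its frequency in the input.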
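Wherever phosphorylation enrichment, bacterial display is given: 11-residue human phosphosite peptides and single-mutation variants displayed on the E. coli surface, counted by deep sequencing, each peptide's frequency after selection divided by its frequency in the unselected input library; frequency after pTyr selection over input frequency; kinase dosed for 20-30% of maximal phosphorylation in three min.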

Sequence of EPHB2 (P29323 whole entry, looked up, the tested form may be a part): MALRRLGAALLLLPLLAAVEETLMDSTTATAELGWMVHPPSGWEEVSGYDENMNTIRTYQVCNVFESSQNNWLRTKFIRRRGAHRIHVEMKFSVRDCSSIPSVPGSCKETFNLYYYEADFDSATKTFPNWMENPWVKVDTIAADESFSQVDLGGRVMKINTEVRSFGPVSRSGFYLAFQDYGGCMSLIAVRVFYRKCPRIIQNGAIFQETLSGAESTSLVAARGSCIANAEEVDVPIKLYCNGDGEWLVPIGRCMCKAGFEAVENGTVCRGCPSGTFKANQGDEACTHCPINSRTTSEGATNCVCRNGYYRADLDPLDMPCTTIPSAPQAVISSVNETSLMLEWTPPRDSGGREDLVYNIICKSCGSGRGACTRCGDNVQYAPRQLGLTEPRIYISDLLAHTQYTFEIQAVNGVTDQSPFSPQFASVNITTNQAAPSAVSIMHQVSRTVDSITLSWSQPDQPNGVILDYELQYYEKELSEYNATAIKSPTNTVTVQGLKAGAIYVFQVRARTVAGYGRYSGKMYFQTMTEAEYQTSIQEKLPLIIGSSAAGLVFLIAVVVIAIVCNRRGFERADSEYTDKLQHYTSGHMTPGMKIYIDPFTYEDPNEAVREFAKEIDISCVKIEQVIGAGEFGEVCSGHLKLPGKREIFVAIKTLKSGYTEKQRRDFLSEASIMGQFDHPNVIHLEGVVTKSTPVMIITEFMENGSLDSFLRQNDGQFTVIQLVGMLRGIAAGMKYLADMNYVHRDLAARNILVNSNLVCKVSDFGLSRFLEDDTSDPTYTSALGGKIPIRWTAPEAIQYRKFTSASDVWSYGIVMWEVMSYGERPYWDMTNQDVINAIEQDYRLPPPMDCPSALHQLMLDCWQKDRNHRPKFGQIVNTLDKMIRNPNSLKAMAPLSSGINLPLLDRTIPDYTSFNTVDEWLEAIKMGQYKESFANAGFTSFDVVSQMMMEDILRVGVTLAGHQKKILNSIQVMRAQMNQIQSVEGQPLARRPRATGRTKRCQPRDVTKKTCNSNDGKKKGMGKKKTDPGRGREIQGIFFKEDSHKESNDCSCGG
Sequence of MERTK (Q12866 whole entry, looked up): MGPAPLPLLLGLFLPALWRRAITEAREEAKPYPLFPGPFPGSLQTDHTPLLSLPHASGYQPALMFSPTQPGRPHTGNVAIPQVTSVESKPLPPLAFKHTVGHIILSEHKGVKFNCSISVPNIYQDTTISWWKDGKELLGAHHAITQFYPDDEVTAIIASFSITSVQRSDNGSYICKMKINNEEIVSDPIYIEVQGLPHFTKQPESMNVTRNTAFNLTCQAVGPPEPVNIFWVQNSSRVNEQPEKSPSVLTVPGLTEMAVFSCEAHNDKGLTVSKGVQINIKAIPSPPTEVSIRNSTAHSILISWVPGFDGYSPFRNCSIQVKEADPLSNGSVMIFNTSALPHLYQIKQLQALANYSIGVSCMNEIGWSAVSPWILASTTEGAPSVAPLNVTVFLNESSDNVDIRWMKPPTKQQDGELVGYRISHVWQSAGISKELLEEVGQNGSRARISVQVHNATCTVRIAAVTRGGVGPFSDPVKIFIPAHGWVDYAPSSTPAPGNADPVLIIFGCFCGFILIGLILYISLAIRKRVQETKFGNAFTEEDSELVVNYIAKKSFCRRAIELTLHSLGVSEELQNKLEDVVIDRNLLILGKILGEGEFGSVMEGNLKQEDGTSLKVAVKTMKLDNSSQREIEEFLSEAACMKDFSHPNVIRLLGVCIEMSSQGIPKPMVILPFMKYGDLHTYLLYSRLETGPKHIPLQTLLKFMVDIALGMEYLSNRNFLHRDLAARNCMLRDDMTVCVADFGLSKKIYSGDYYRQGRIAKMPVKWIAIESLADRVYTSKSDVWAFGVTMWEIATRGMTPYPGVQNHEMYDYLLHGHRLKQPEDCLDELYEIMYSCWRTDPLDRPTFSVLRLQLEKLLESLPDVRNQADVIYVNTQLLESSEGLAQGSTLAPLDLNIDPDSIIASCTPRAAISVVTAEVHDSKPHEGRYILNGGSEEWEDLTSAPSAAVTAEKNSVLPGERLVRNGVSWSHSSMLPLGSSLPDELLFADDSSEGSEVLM
Sequence of EPHB1 (P54762 whole entry, looked up): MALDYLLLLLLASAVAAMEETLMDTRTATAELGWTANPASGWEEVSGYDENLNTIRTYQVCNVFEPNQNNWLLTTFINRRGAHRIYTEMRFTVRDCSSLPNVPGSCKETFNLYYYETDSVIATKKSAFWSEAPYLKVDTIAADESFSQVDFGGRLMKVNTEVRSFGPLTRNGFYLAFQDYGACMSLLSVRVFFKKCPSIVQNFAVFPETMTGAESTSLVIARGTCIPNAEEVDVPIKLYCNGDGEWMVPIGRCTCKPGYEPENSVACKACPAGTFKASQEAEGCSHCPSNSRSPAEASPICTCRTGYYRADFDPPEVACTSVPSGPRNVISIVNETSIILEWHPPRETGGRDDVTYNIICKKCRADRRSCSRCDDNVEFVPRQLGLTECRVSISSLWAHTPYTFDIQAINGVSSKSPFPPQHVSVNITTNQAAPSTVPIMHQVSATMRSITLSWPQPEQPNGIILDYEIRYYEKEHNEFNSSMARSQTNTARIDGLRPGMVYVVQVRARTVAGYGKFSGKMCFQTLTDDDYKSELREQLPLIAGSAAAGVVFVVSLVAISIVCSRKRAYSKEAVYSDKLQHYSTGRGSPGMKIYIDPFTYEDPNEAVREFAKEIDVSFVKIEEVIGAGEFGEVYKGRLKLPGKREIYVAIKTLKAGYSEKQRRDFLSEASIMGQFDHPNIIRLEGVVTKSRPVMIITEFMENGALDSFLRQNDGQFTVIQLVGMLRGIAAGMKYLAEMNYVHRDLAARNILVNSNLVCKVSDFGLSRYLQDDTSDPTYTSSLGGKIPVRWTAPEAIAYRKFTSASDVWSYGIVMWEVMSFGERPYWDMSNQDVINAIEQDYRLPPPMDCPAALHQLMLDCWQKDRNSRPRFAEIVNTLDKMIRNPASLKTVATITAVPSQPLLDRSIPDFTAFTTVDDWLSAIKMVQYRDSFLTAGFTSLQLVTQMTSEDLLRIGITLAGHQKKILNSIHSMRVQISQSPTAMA
Sequence of Fes (P07332 whole entry, looked up): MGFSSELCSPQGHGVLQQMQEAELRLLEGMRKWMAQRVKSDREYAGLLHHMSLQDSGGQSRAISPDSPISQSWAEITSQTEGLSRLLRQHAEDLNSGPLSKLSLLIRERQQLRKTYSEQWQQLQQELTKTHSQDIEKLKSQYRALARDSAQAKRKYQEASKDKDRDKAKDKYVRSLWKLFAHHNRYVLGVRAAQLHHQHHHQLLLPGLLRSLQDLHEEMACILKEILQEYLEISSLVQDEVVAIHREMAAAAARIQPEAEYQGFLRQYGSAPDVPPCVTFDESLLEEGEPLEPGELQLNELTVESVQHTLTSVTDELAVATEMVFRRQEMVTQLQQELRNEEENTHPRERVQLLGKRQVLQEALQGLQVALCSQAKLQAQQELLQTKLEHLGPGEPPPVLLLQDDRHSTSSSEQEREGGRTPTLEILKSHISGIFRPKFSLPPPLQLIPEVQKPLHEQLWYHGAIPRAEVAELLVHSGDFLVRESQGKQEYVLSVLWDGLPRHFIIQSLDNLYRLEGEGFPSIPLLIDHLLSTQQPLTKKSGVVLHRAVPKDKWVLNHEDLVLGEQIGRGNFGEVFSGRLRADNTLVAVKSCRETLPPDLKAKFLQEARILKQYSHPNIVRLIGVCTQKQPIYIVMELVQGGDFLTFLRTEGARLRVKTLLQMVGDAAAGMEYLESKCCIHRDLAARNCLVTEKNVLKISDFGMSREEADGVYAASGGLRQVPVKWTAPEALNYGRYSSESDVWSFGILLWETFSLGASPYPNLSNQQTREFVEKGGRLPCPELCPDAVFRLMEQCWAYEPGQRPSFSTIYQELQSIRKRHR
Sequence of Hck (P08631 whole entry, looked up): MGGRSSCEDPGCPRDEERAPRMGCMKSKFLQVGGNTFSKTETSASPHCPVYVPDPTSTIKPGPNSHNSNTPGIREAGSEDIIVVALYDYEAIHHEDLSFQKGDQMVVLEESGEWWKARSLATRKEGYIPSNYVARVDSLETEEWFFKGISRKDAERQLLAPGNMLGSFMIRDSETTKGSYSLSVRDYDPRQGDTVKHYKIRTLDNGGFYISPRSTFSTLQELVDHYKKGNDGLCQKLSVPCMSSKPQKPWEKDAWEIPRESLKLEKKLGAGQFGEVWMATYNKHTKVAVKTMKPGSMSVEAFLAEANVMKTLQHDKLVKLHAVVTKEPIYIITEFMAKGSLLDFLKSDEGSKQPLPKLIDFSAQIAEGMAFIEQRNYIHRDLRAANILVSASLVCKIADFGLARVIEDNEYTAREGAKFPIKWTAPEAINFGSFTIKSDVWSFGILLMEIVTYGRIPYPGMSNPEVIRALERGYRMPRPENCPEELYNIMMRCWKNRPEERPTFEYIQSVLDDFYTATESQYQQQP
Sequence of Grb2 SH2 (P62993 whole entry, looked up): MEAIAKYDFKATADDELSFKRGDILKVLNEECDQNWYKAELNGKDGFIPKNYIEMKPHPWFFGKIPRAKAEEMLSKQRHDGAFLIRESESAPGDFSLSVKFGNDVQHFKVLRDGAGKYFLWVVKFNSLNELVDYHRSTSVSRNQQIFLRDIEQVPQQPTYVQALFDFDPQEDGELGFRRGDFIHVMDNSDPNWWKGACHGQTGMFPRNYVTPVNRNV

| Sequence | SH2 binding enrichment (SHP2-C SH2) | SH2 binding enrichment (c-Src SH2) | SH2 binding enrichment (Grb2 SH2) | phosphorylation enrichment (FGFR1) | phosphorylation enrichment (EPHB1) | phosphorylation enrichment (Fes) | phosphorylation enrichment (Fer (mouse)) | phosphorylation enrichment (Fyn) | phosphorylation enrichment (Jak2) | phosphorylation enrichment (Hck) | phosphorylation enrichment (AncSZ) | phosphorylation enrichment (c-Abl (mouse)) | phosphorylation enrichment (FGFR3) | phosphorylation enrichment (MERTK) | phosphorylation enrichment (c-Src) | phosphorylation enrichment (EPHB2) |
| --- | --- | --- | --- | --- | --- | --- | --- | --- | --- | --- | --- | --- | --- | --- | --- | --- |
| GINDDHGQLKN [NBN_Y679_Y679H] | 1.05 | 0.481 | 0.817 | 0.471 | 0.448 | 0.763 | 0.426 | 0.537 | 0.591 | 0.484 | 0.757 | 0.524 | 0.591 | 0.473 | 0.382 | 0.475 |
| MTRDIYRASYY [ALK_Y1278_A1274T] | 0.704 | 0.786 | 0.876 | 0.844 | 0.598 | 0.702 | 0.462 | 0.888 | 0.63 | 1.17 | 0.725 | 2.42 | 0.676 | 0.827 | 1.66 | 0.579 |
| PRPAGYPSMVS [CACNA1C_Y1832_T1835M] | 0.507 | 0.312 | 0.755 | 0.386 | 0.393 | 0.668 | 0.412 | 0.48 | 0.475 | 0.456 | 0.678 | 0.435 | 0.364 | 0.365 | 0.416 | 0.561 |
| YVFSFYHAFSG [ACTN4_Y265_S262F] | 1.23 | 0.889 | 1.19 | 0.921 | 1.15 | 1.43 | 0.69 | 0.692 | 1.44 | 0.835 | 1.37 | 1.1 | 1.13 | 3.14 | 0.964 | 0.825 |
| RVGNMYVRGLS [ABCG8_Y209] | 0.732 | 0.564 | 0.994 | 0.58 | 0.457 | 0.839 | 0.468 | 0.574 | 0.709 | 0.675 | 0.672 | 0.494 | 0.682 | 0.395 | 0.331 | 0.471 |
| FRNSLYAPDFS [FAM92A_Y226_YF] | 0.736 | 0.511 | 0.674 | 0.891 | 2.04 | 0.899 | 0.911 | 1.02 | 0.812 | 1.23 | 0.755 | 0.563 | 0.743 | 8.67 | 1.25 | 1.35 |
| GGFNNYGFGND [HNRNPH3_Y159_YF] | 0.697 | 0.467 | 0.875 | 0.514 | 0.733 | 0.841 | 0.463 | 0.465 | 0.627 | 0.437 | 0.654 | 0.548 | 0.611 | 0.397 | 0.431 | 0.902 |
| YRAPGYREVVI [TNS2_Y673] | 0.889 | 0.633 | 1.11 | 0.52 | 0.445 | 0.634 | 0.432 | 0.474 | 0.509 | 0.439 | 0.587 | 2.11 | 0.443 | 0.403 | 0.419 | 0.43 |
| RGDIFYTSKLW [AKR1C3_Y81_E77G] | 0.888 | 0.55 | 0.919 | 0.923 | 0.964 | 1.59 | 0.648 | 0.611 | 1.33 | 0.46 | 1.72 | 0.889 | 1.09 | 0.803 | 0.735 | 0.963 |
| LRIAVYHEILI [CREBBP_Y1450_T1447I] | 0.798 | 0.954 | 1.1 | 5.94 | 5.55 | 4.93 | 2.45 | 3.37 | 4.19 | 2.74 | 5.75 | 2.93 | 6.95 | 1.62 | 2.29 | 3.56 |
| SHMVDYQPFRK [TEX37_Y25_YF] | 1.06 | 0.383 | 0.948 | 0.387 | 0.549 | 0.705 | 0.294 | 0.5 | 1.03 | 0.732 | 0.564 | 0.967 | 0.464 | 0.473 | 0.672 | 0.445 |
| EEGRVYVYRLS [ITGAE_Y549] | 2.07 | 0.66 | 0.934 | 0.496 | 0.595 | 1.11 | 0.505 | 0.616 | 0.997 | 0.548 | 0.904 | 0.713 | 0.76 | 0.379 | 0.698 | 0.504 |
| FKEIVYAVSSD [DCX_Y70_G67E] | 0.656 | 0.742 | 0.913 | 0.723 | 0.455 | 1.4 | 0.587 | 3.23 | 0.921 | 2.25 | 1.32 | 13.7 | 0.809 | 1.93 | 3.74 | 0.644 |
| IFHENYNAGTY [CFI_Y421] | 0.676 | 0.625 | 0.788 | 0.557 | 0.656 | 1.02 | 1.01 | 0.664 | 0.783 | 0.717 | 0.804 | 0.603 | 0.588 | 0.533 | 0.655 | 0.585 |
| KILTHYKRPHT [KMT2D_Y5349] | 1.27 | 1.56 | 1.76 | 0.456 | 0.359 | 0.621 | 0.445 | 0.393 | 0.439 | 0.349 | 0.495 | 0.579 | 0.515 | 0.365 | 0.379 | 0.42 |
| ETMNKYDLSGR [MYEF2_Y164] | 0.639 | 0.44 | 0.912 | 0.421 | 0.383 | 0.696 | 0.422 | 0.434 | 0.731 | 0.448 | 0.667 | 0.507 | 0.498 | 0.633 | 0.398 | 0.391 |
| QRAADYYSQQM [GBP6_Y333] | 0.608 | 0.56 | 0.887 | 2.32 | 0.933 | 1.53 | 0.579 | 1.42 | 0.728 | 0.611 | 1.29 | 0.591 | 1.75 | 0.813 | 0.524 | 1.14 |

| Sequence | SH2 binding enrichment (SHP2-C SH2) | SH2 binding enrichment (c-Src SH2) | SH2 binding enrichment (Grb2 SH2) | phosphorylation enrichment (FGFR1) | phosphorylation enrichment (EPHB1) | phosphorylation enrichment (Fes) | phosphorylation enrichment (Fer (mouse)) | phosphorylation enrichment (Fyn) | phosphorylation enrichment (Jak2) | phosphorylation enrichment (Hck) | phosphorylation enrichment (AncSZ) | phosphorylation enrichment (c-Abl (mouse)) | phosphorylation enrichment (FGFR3) | phosphorylation enrichment (MERTK) | phosphorylation enrichment (c-Src) | phosphorylation enrichment (EPHB2) |
| --- | --- | --- | --- | --- | --- | --- | --- | --- | --- | --- | --- | --- | --- | --- | --- | --- |
| LKFAIYFEVRE [LAMA2_Y1258_A1261V_YF] | 1.11 | 0.653 | 0.877 | 0.556 | 0.652 | 1.72 | 0.932 | 0.414 | 2.52 | 0.569 | 1.65 | 1.74 | 1.08 | 0.808 | 0.831 | 0.483 |
| KFADVYVGICL [B3GALNT1_Y269_E266A] | 0.369 | 0.423 | 0.731 | 0.65 | 0.846 | 1.34 | 0.978 | 0.787 | 1.21 | 0.85 | 1.46 | 1.29 | 0.909 | 0.522 | 1.12 | 0.988 |
| IHSGIYYKPES [L2HGDH_Y102] | 0.539 | 0.67 | 0.762 | 1.53 | 3.93 | 0.752 | 0.943 | 6 | 3.48 | 5.38 | 1.45 | 18.7 | 1.38 | 11.7 | 4.54 | 2.02 |
| EFLHKYKGFKI [SYNE1_Y6953_Q6951H_YF] | 0.998 | 0.34 | 0.832 | 0.397 | 0.458 | 0.765 | 0.379 | 0.318 | 0.667 | 0.435 | 0.857 | 0.697 | 0.545 | 0.431 | 0.508 | 0.264 |
| KTTGGYAGGLS [KRT8_Y419_S417G] | 0.575 | 0.416 | 0.853 | 0.454 | 0.34 | 0.592 | 0.419 | 0.413 | 0.701 | 0.454 | 0.506 | 0.649 | 0.422 | 0.523 | 0.583 | 0.473 |
| LYSNAYLNDLA [ALDH1A1_Y119] | 0.613 | 1.84 | 4.68 | 0.484 | 0.853 | 0.914 | 4.03 | 1.19 | 0.667 | 1.45 | 0.831 | 0.396 | 0.776 | 5.82 | 1.1 | 0.685 |
| YLEKYYKFGCR [NNMT_Y25_S29C] | 0.94 | 0.681 | 0.938 | 0.569 | 0.775 | 1.55 | 0.55 | 0.549 | 1.34 | 0.564 | 1.18 | 1.02 | 0.928 | 0.649 | 0.739 | 0.588 |
| RARIRYAQEHD [NSD1_Y1987] | 0.536 | 0.572 | 0.663 | 0.689 | 0.727 | 0.885 | 0.737 | 0.757 | 0.691 | 0.85 | 1.12 | 0.706 | 0.625 | 0.627 | 0.636 | 1.19 |
| FPSLPYSPVSS [CAMKK2_Y128_C123Y_YF] | 0.863 | 0.672 | 0.857 | 0.539 | 0.452 | 0.707 | 2.1 | 0.479 | 0.526 | 0.59 | 0.789 | 0.507 | 0.592 | 0.489 | 0.457 | 0.445 |
| KDKLPYPFDDP [GPX2_Y125_YF] | 0.854 | 0.454 | 0.815 | 0.567 | 0.457 | 1.01 | 0.533 | 0.556 | 0.821 | 0.498 | 1.04 | 0.581 | 0.638 | 0.512 | 0.486 | 0.792 |
| FHRQLYHKCTH [F12_Y58_YF] | 0.933 | 0.916 | 1.03 | 0.387 | 0.855 | 0.76 | 0.398 | 0.371 | 0.623 | 0.425 | 0.601 | 0.502 | 0.442 | 0.385 | 0.375 | 0.495 |
| RGDCMYAPLLG [AR_Y269] | 0.739 | 1.04 | 0.98 | 3.08 | 7.23 | 0.885 | 4.16 | 8.2 | 0.743 | 10.9 | 0.898 | 5.89 | 1.83 | 10.4 | 5.61 | 8.4 |
| PKEQRYSFLQN [GH1_Y68_K67R] | 1.11 | 2.17 | 1.04 | 1.12 | 0.75 | 1.44 | 0.902 | 0.605 | 1.62 | 0.904 | 1.27 | 0.744 | 0.617 | 6.49 | 0.631 | 0.901 |
| HLWRIYYDITD [MMP27_Y307] | 1.01 | 0.941 | 0.869 | 4.63 | 9.72 | 3.16 | 1.64 | 2.6 | 3.36 | 3.14 | 3.29 | 1.86 | 3.87 | 1.77 | 4.21 | 4.96 |
| PPGRSYSPCDF [TNS1_Y793_Y796C_YF] | 0.839 | 0.696 | 1.25 | 0.716 | 0.895 | 1.16 | 0.689 | 0.431 | 0.679 | 0.639 | 1.01 | 0.902 | 0.816 | 0.676 | 0.649 | 0.858 |
| GIVKAYFVHAR [AIPL1_Y267_R270H_YF] | 1.71 | 1.01 | 1.3 | 0.388 | 0.422 | 0.872 | 0.481 | 0.449 | 0.73 | 0.461 | 0.795 | 0.602 | 0.605 | 0.448 | 0.428 | 0.494 |
